Test results published in patent US20240052065A1 (Boehringer Ingelheim, published 2024).

Assays:
[1] = biological target: T1, recombinant human CDH3 [EC2-EC3] (human, UniProt P22223 216-440, limits assumed); experiment: SPR (ProteOn XPR36), bispecific captured on protein A/G, CDH3 EC2-EC3 as analyte
T1 construct: no separate entry is named for EC3; also called HuCDH3_EC2-EC3; EC2-EC3 peptide

[2] = biological target: T2, recombinant human CDH3, full-length (human, UniProt P22223 108-654, limits assumed); experiment: SPR (ProteOn XPR36), bispecific captured on protein A/G, CDH3 as analyte, 1:1 Langmuir fit
T2 construct: also called HuCDH3 full-length; human full-length CDH3
Procedure: (§1) The binding affinity of purified CDH3/TRAILR2 bispecific constructs for recombinant human CDH3 (either full-length, EC1-EC2 or EC2-EC3) was determined by Surface Plasmon Resonance (SPR), using a ProteOn XPR36 instrument (Bio-Rad). The running buffer and all dilutions (except where stated) were done in PBS-TEDTA. The GLM sensor chip (Bio-Rad) was normalized and pre-conditioned as per the manufacturers recommendations. The sensor chip was activated with equal mixture of EDC/s-NHS in the horizontal direction for 300 sec at a flow rate of 30 μl/min and immobilized with protein A/G (60 μg/ml in 10 mM acetate pH 4.5) in the horizontal direction for 300 sec at a flowrate of 30 μl/min resulting in 5000 RU of protein A/G on the surface. The sensor chip was deactivated with 1 M ethanolamine HCl in the horizontal direction for 300 sec at a flowrate of 30 μl/min.
(§2) For binding kinetic determination to CDH3, bispecific molecules were captured individually on the protein A/G surface vertically for 150 sec at a flowrate of 30 μl/min. The baseline was stabilized by injecting PBS-T-EDTA for 60 sec at a flowrate of 100 μl/min horizontally. The analyte (human full-length CDH3, CDH3 [EC1-EC2] or CDH3 [EC2-EC3]) was injected horizontally over the captured antibody for 300 sec at a flowrate of 30 μl/min and a dissociation for 1200 sec. The concentration of the analytes injected was 200 nM for the full-length CDH3 and 500 nM for EC1-EC2 and EC2-EC3.

[3] = biological target: T3, recombinant human CDH3 [EC1-EC2] (human, UniProt P22223 108-328, limits assumed); experiment: as above
T3 construct: also called HuCDH3 EC1-EC2
Procedure: as §1, §2

Row | binding result [1] | Kd [2] [nM] | Kd [3] [nM] | Binder
1 | no binding (tested: 500 nM analyte) | 9.93 | 11.4 | bispecific binding molecule CDH3/TRAILR2v2 (bispecific antibody, human IgG1, kappa, L234A L235A, also called CDH3/TR2v2) heavy: not shown light: DIVMTQSPLSLPVTPGEPASISCRSSQSLLHSYGYNYLDWYLQKPGQSPQLLIYLGSNRASGVPDRFSGSGSGTDFTLKISRVEAEDFGIYYCMQALQTPITFGQGTRLEIKRTVAAPSVFIFPPSDEQLKSGTASVVCLLNNFYPREAKVQWKVDNALQSGNSQESVTEQDSKDSTYSLSSTLTLSKADYEKHKVYACEVTHQGLSSPVTKSFNRGEC
2 | no binding (tested: 500 nM analyte) | 1.08 | 0.85 | bispecific binding molecule CDH3/TRAILR2v3 (bispecific antibody, human IgG1, kappa, L234A L235A, also called CDH3/TR2v3) heavy: not shown light: DIVMTQSPLSLPVTPGEPASISCRSSQSLMYSYGYNYLDWYLQKPGQSPQLLIYLGSNRASGVPDRFSGSGSGTDFTLKISRVEAEDVGIYYCMQALQTPPTFGQGTKVEIKRTVAAPSVFIFPPSDEQLKSGTASVVCLLNNFYPREAKVQWKVDNALQSGNSQESVTEQDSKDSTYSLSSTLTLSKADYEKHKVYACEVTHQGLSSPVTKSFNRGEC
